Results published in publication PMC12153317 (2025).
Several values for one entry are separate records, joined by “and”; a condition that tells them apart may be missing. Identical values can stand only once.

B1: FI6v3 recombinant human IgG (antibody, V domains shown)
VH: QVQLVESGGGVVQPGRSLRLSCAASGFTFSTYAMHWVRQAPGKGLEWVAVISYDANYKYYADSVKGRFTISRDNSKNTLYLQMNSLRAEDTAVYYCAKDSQLRSLLYFEWLSQGYFDYWGQGTLVTVSS
VL: not shown
B2: S1V2-65 recombinant human IgG1 (antibody, V domains shown)
VH: EVQLVQSGAEVKKPGETLKISCKGSGYSFTNYWIGWVRQMPGKGLECMGIIDPSDSETRYSPSFQGQVTISADKSTNTAFLQWSTVKASDTAIYYCARLGYGDSPPFDFWGQGAGVTVS
VL: MTQSPLSLPVTPGESASISCRSSQSLLYSNGYNHLDWYVQKPGQPPQLLIFLGSTRASGVSDRVSGSGSGTDFTLQISRVEAEDVGVYYCMQALETPYTFGQGTKLEVK
B3: S1V2-60 recombinant human IgG1 (antibody, V domains shown)
VH: EVQLVQSGAEVSEPGKSLKISCKGSAYSFINYWIGWVRQMPGKGLECMGIIDPSDSETRYNPSFEGHVLISADTSINTAYLQWSSLRASDTAMYYCVRLGYGDSPPFDSWGQGTLVTVS
VL: MTQSPFSLPVTPGEPASISCRSSQSLLYSNGYNHLDWYQQKPGQPPQLLIFLGSRRASGVPDRFSGSGSGTDFTLKISRVEAEDVGVYYCMQALQDPYTFGQGTKLEIK
B4: S8V1-157 recombinant human IgG1 (antibody, V domains shown)
VH: EVQLVQSGAEVKKPGASVKVSCKVSGYRLTALSMHWVRQAPGKGLEWMGGFDPEEDETIYAQNFQGRVTLTEDTSTDTVYMELSSLRSEDTGVYYCATLMGANPFDYWGQGTLIIVSG
VL: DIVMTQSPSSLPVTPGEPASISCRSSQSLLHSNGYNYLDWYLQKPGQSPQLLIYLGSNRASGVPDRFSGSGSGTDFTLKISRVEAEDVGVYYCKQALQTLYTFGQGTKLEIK
B5: S1V2-17 recombinant human IgG1 (antibody, V domains shown)
VH: QVKLVQSGAEVKKPGASVKVSCKVSGYTLSELSIHWVRQVPGKGLESMGGFDPEDDGAIYAESFQGRVTMTEDTSTDTSFMELHSLRSEDTAVYYCVTWLVGTTVAAYWGQGTLVTVS
VL: MTQTPFSLPVTPGEPASISCRSSQSLLYSNGYNHLDWYLQKPGQSPQLLIYLGSYRASGVPDRFSGSGSGTDFTLKISRVEADDVGVYYCMQALQAPRTFGQGTKVEIK

How the values were obtained:
Experiment in all cases: ELISA
[1] = target: pre-pandemic H5 HAs (soluble HA ectodomains, ELISA) (influenza A virus)
[2] = target: pandemic H2 HA (soluble HA ectodomain, ELISA) (influenza A virus)
[3] = target: all seasonal H3s (1968–2020) assayed (soluble HA ectodomains, ELISA) (influenza A virus)
[4] = target: specific HAs not engaged in ELISA (soluble HA ectodomains) (influenza virus)

Binder | Kd [1] | Kd [2] | Kd [3] | Kd [4]
B1 | 440 pM | 360 pM | – | –
B2 | 100 pM | 10000 pM | 160 pM and 210 pM and 250 pM | > 100000 pM
B3 | 100 pM | 8800 pM | – | > 100000 pM
B4 | < 100 pM | 2500 pM | – | > 100000 pM
B5 | 140 pM | 6500 pM | – | > 100000 pM
